Data: patent US7902341B2, “Methods and compositions for modulating somatolactogenic functions” (Trustees of the University of Pennsylvania, priority 1999, dated 2011)

Tested on: Nb2 cells
Assay: Nb2 cell proliferation (3H-thymidine) to assess CypB modulation of somatolactogenic action
Assay type: cell-based, rat
Method: The effect of exogenous CypB on PRL-driven proliferation was examined with the rat Nb2 T-cell and the human T47D breast cancer line. […] This dose-dependent biphasic effect was most prominent at physiologic concentrations (5-10 mM) of CypB and PRL (50 pM) found in human serum. […] To determine the effect of CypB on cellular growth driven by the larger family of cytokines, to which PRL belongs, proliferation driven by interleukin-2 (IL-2), IL-3 and GH was examined.
Nb2-cells (5×10^4; PRL-dependent, rat T-lymphoma) were plated in each well of 96 well plates in a defined DMEM-serum free medium (0.1 mM 2-mercaptoethanol, 1% penicillin/streptomycin, and 1% ITS+(Calbiochem)). Cells were rested for 24 hours at 37° C. in this defined medium in the absence of PRL before the addition of 5-500 pM PRL (either as human pituitary isolated PRL, National Hormone and Pituitary Program, NIDDK; recombinant human PRL from E. coli, Genzyme; or recombinant human PRL from Drosophila S2 cells) alone or premixed with 1-2000 fold excess of purified CypB. Parallel studies were performed using human pituitary-derived GH (National Hormone and Pituitary Program, NIDDK). Cultures were incubated for 48 hours at 37° C. and proliferation was evaluated by the addition of 0.5 μCi of ^3H-thymidine for four hours followed by harvesting and scintillography. […]

B1: Myc-tagged PRL: recombinant human PRL with myc-tag expressed in Drosophila S2 cells (protein)
chain: LPICPGGAARCQVTLRDLFDRAVVLSHYIHNLSSEMFSEFDKRYTHGRGFITKAINSCHTSSLATPEDKEQAQQMNQKDFLSLIVSILRSWNEPLYHLVTEVRGMQEAPEAILSKAVEIEEQTKRLLEGMELIVSQVHPETKENEIYPVWSGLPSLQMADEESRLSAYYNLLHCLRRDSHKIDNYLKLLKCRIIHNNNC
modifications: left off: small tags and cut ends
notes: recombinant human PRL with myc-tag expressed in Drosophila S2 cells
- bioactivity in Nb2 bioassays (protein secreted by Drosophila S2 cells): functionally bioactive

B2: PRL: human prolactin, pituitary isolated or recombinant (protein)
chain: LPICPGGAARCQVTLRDLFDRAVVLSHYIHNLSSEMFSEFDKRYTHGRGFITKAINSCHTSSLATPEDKEQAQQMNQKDFLSLIVSILRSWNEPLYHLVTEVRGMQEAPEAILSKAVEIEEQTKRLLEGMELIVSQVHPETKENEIYPVWSGLPSLQMADEESRLSAYYNLLHCLRRDSHKIDNYLKLLKCRIIHNNNC
modifications: left off: small tags and cut ends
notes: human prolactin, pituitary isolated or recombinant
- PRL concentration at which the sigmoid Nb2 growth curve plateaus (Nb2 cells stimulated with PRL alone): approximately 2 ng PRL/ml
